{
  "source": "paper PMC6937242",
  "about": "“Characterization and engineering of broadly reactive monoclonal antibody against hepatitis B virus X protein that blocks its interaction with DDB1” (Scientific Reports, 2019)",
  "molecules": {"B1": {"name": "Igκ-VHVL(2A7)-Fc (scFv, V domains shown)", "VH": "QVTLKESGPGILQPSQTLSLTCSFSGFSLSTSGMGVVWIRQPSGKGLEWLAHIWWDDDKYYNTALKSGLTISKDTSKNQVFLKIASVDTADTATYYCARMPYYDYDGGVAYWGQGTLVTVSA", "VL": "DIVMTQSPASLVVSLGQRATISCRASKSVSTSGYSYMYWYQQKPGQPPKLLIYLASNLESGVPARFSGSGSGTDFTLNIHPVEEEDAATYYCQHSRELPLTFGAGTKLELK", "notes": "as the VH of m1 (2A7 VH); linker, printed as (GlyGlyGlyGlySer)3; as the VL of m1 (2A7 VL1); also called Igκ-VHVL-Fc; 2A7-derived scFv; source: HEK293T, transfected; secreted into supernatant, or in cell lysate; not shown: Fc (human IgG1), C-terminal, kept"}, "B2": {"name": "mouse monoclonal antibody against HBx (anti-HBx 2A7) (antibody, V domains shown)", "VH": "QVTLKESGPGILQPSQTLSLTCSFSGFSLSTSGMGVVWIRQPSGKGLEWLAHIWWDDDKYYNTALKSGLTISKDTSKNQVFLKIASVDTADTATYYCARMPYYDYDGGVAYWGQGTLVTVSA", "VL": "DIVMTQSPASLVVSLGQRATISCRASKSVSTSGYSYMYWYQQKPGQPPKLLIYLASNLESGVPARFSGSGSGTDFTLNIHPVEEEDAATYYCQHSRELPLTFGAGTKLELK", "notes": "2A7 VH; 2A7 CH, mapped to mouse IGHG1 (immunoglobulin heavy constant gamma 1); 2A7 VL1; 2A7 CK, κ-type light chain constant region; IgG1 subclass, κ light chain (VL1/CK and VH/CH confirmed by LC-MS/MS); also called anti-HBx mAb 2A7; 2A7 mAb; source: SP2/0 hybridoma cell line, purified; also recovered from lysed Huh-7 or HepG2 cells after delivery with TR16-Tat"}, "B3": {"name": "recombinant 2A7 antibody (antibody, V domains shown)", "VH": "QVTLKESGPGILQPSQTLSLTCSFSGFSLSTSGMGVVWIRQPSGKGLEWLAHIWWDDDKYYNTALKSGLTISKDTSKNQVFLKIASVDTADTATYYCARMPYYDYDGGVAYWGQGTLVTVSA", "VL": "DIVMTQSPASLVVSLGQRATISCRASKSVSTSGYSYMYWYQQKPGQPPKLLIYLASNLESGVPARFSGSGSGTDFTLNIHPVEEEDAATYYCQHSRELPLTFGAGTKLELK", "notes": "as the VH of m1 (2A7 VH); mouse IgG2a heavy chain constant fragment; as the VL of m1 (2A7 VL1); mouse κ light chain constant fragment; source: Expi293F cells, co-transfected, purified from culture supernatant (Protein A)"}},
  "note": "Where no end group is shown, it is not given here.",
  "data": [
    {"molecular_target": "mouse monoclonal antibody against HBx (anti-HBx 2A7)", "experiment": "Western blot with densitometry", "settings": "HEK293T lysates; 2A7 signal adjusted against anti-FLAG signal, normalized against BPS HBx; parent: 100", "units": {"percent of parent": "%"}, "values": [
      {"molecule": "FLAG-tagged wild type BPS HBx 77-79 (3 Ala)", "percent of parent": 97},
      {"molecule": "FLAG-tagged wild type BPS HBx 80-82 (3 Ala)", "percent of parent": 450},
      {"molecule": "FLAG-tagged wild type BPS HBx 98-100 (3 Ala)", "percent of parent": 140},
      {"molecule": "FLAG-tagged wild type BPS HBx 101-103 (3 Ala)", "percent of parent": 296},
      {"molecule": "FLAG-tagged wild type BPS HBx 104-106 (3 Ala)", "percent of parent": 187},
      {"molecule": "FLAG-tagged wild type BPS HBx H86A; R87A; N88A", "percent of parent": 334},
      {"molecule": "FLAG-tagged wild type BPS HBx H94A", "percent of parent": 0},
      {"molecule": "FLAG-tagged wild type BPS HBx K91A", "percent of parent": 36},
      {"molecule": "FLAG-tagged wild type BPS HBx K95A", "percent of parent": 0},
      {"molecule": "FLAG-tagged wild type BPS HBx K95A; R96A; T97A", "percent of parent": 0},
      {"molecule": "FLAG-tagged wild type BPS HBx L89A", "percent of parent": 151},
      {"molecule": "FLAG-tagged wild type BPS HBx L89A; P90A; K91A", "percent of parent": 36},
      {"molecule": "FLAG-tagged wild type BPS HBx L93A", "percent of parent": 25},
      {"molecule": "FLAG-tagged wild type BPS HBx L98A", "percent of parent": 90},
      {"molecule": "FLAG-tagged wild type BPS HBx P90A", "percent of parent": 7},
      {"molecule": "FLAG-tagged wild type BPS HBx R96A", "percent of parent": 81},
      {"molecule": "FLAG-tagged wild type BPS HBx T97A", "percent of parent": 99},
      {"molecule": "FLAG-tagged wild type BPS HBx V83A; N84A", "percent of parent": 349},
      {"molecule": "FLAG-tagged wild type BPS HBx V92A", "percent of parent": 2},
      {"molecule": "FLAG-tagged wild type BPS HBx V92A; L93A; H94A", "percent of parent": 0}
    ]},
    {"molecular_target": "T1, biotinylated BPS HBx peptide a.a. 89–104 (Hepatitis B virus genotype B, isolate …, UniProt P20975, strain, also: biotinylated)", "T1 construct": "HBx of hepatitis B virus genotype B isolate BPS, a.a; a.a; also called peptide harboring a.a; source: synthetic peptide (GL Biochem)", "T1 chain": "LPKVLHKRTLGLSAMS", "experiment": "ELISA; biotinylated 16-mer HBx peptides captured on streptavidin-coated plates; secreted Igκ-VHVL-Fc added; HRP anti-human Fc pAb; OD450", "settings": "one partner purified", "values": [
      {"molecule": "B1", "binding result": "binds"}
    ]},
    {"molecular_target": "T2, bacterially expressed BPS-encoded HBx protein (Hepatitis B virus genotype B, isolate …, UniProt P20975, strain)", "T2 construct": "HBx (X protein) of hepatitis B virus genotype B isolate BPS; also called recombinant HBx protein; BPS HBx (ELISA); source: bacterially expressed, purified under denaturing conditions", "experiment": "ELISA; recombinant BPS HBx coated at 100 ng/well in bicarbonate/carbonate buffer pH 9.6; purified antibody added, 37 °C for 1 h; HRP anti-mouse pAb; OD450", "settings": "both partners purified", "values": [
      {"molecule": "B2", "binding result": "binds"}
    ]},
    {"molecular_target": "T1, biotinylated BPS HBx peptide a.a. 89–104", "experiment": "ELISA; biotinylated 16-mer HBx peptides captured on streptavidin-coated plates at 500 ng/well in PBS; antibody added, 37 °C for 1 h; HRP anti-mouse pAb; OD450", "settings": "both partners purified", "values": [
      {"molecule": "B2", "binding result": "binds"},
      {"molecule": "B3", "binding result": "binds"}
    ]},
    {"molecular_target": "T3, FLAG-tagged wild type BPS HBx (Hepatitis B virus genotype B, isolate …, UniProt P20975, strain)", "T3 construct": "HBx (X protein) of hepatitis B virus genotype B isolate BPS, 154 a.a; also called FLAG-HBx (wild type); wild-type HBx; source: HEK293T, transfected, in lysate or in fixed cells; HepG2, transfected, in lysate; not shown: FLAG, N-terminal, kept", "experiment": "co-IP; HEK293T co-transfected with Igκ-VHVL-Fc and FLAG-tagged wild type or mutant BPS HBx; lysate; anti-FLAG as capture antibody; blots with anti-hFc and anti-FLAG", "settings": "partners not purified", "values": [
      {"molecule": "B1", "binding result": "binds"}
    ]},
    {"molecular_target": "T4, FLAG-tagged WT (genotype C isolate) HBx (Hepatitis B virus genotype C, isolate …, UniProt P0C686, strain)", "T4 construct": "'WT' is here the name of an isolate, not 'wild type'; also called WT HBx; source: HEK293T, transfected, in lysate or in fixed cells; not shown: FLAG, N-terminal, kept", "experiment": "Western blot; lysates of HEK293T cells transfected with FLAG-tagged HBx variants, 48 hours, resolved and blotted; probed with 2A7; anti-FLAG as control; densitometry normalised to anti-FLAG and to BPS HBx", "settings": "one partner purified", "values": [
      {"molecule": "B2", "binding result": "binds"}
    ]}
  ]
}
